B1: ET200-109 (scFv)
scFv: LPVLTQPPSASATPGQRVTISCSGTTSNIGSNTVHWYQQLPGTAPKLLIYNNNQRPSGVPDRFSGSKSGTSASLAISGLRSEDEATYSCATWDDSLSGVVFGGGTKLTVLGSRGGGGSGGGGSGGGGSLEMAEVQLVQSGAEVKKPGSSVKVSCKASGGTFSSYAISWVRQAPGQGLEWMGGIIPIFGTANYAQKFQGRVTITADESTSTAYMELSSLRSEDTAVYYCARDPAYGDYEYDAFDIWGQGTMVTVSSTSGQAGQHHHHHHGAYPYDVPDYAS
notes: screened as phage clone; entry is VL-linker-VH-His tag-HA tag
B2: ET200-110 (scFv)
scFv: QSVLTQPPSASGTPGQRVTISCSGSSSNIGTNGVNWFQQFPGTAPKLLIYTNDQRPSGVPDRFSGSKSGTSASLAISGLQSADEADYYCAVWDHSLNGPVFGGGTKLTVLGSRGGGGSGGGGSGGGGSLEMAQVQLVQSGAEVKKPGSSVKVSCKASGGTFSSYAISWVRQAPGQGLEWMGGIIPIFGTANYAQKFQGRVTITADESTSTAYMELSSLRSEDTAVYYCARGAGFDAFDIWGQGTMVTVSSTSGQAGQHHHHHHGAYPYDVPDYAS
notes: as for B1
B3: ET200-113 (scFv)
scFv: QSVVTQPPSVSAAPGQKVTISCSGSSSNIGNNYVSWYQQLPGTAPKLLIYDNNKRPSGIPDRFSGSKSGTSATLGITGLQTGDEADYYCGTWDSSLSAAYVFGTGTKVTVLGSRGGGGSGGGGSGGGGSLEMAQVQLVQSGAEVKKPGASVKVSCKASGYSFTSYTISWVRQAPGQGLEWMGWVSTYNGLRNYAQNLQGRVTMTTDTLTTTAYMELRSLRSDDTAVYYCVREGSPDYGDFAAFDYWGQGTLVTVSSTSGQAGQHHHHHHGAYPYDVPDYAS
notes: as for B1
B4: ET200-115 (scFv)
scFv: QSVLTQPPSVSGAPGQRVTISCTGSSSNIGARYDVHWYQQLPGTAPRLLISANYDRPSGVPDRFSGSKSGTSASLAITGLQAEDEADYYCQSYDSSVSAWVFGGGTKVTVLGSRGGGGSGGGGSGGGGSLEMAEVQLVQSGAEVKEPGASVRISCQASGYNFISYYMHWVRQAPGQGLEWMGTINPGSGETDYSQKLQGRVTMTRDPSTGTFDMGLSSLTSGDTAVYYCATGLIRGASDAFNIWGRGTMVTVSSTSGQAGQHHHHHHGAYPYDVPDYAS
notes: as for B1
B5: ET200-112 (scFv)
scFv: QAVLTQPPSASGTPGQRVTISCSGSSSNIGSNTVNWYQQLPGTAPKLLMYSNDQRPSGVPDRFSGSKSGTSASLAISGLQSEDEADYYCAAWDDSLNGYVFAAGTQLTVLSSRGGGGSGGGGSGGGGSLEMAQVQLQQWGAGLLKPSETLSLTCAVYGGSFSGYYWSWIRQPPGKGLEWIGEINHSGSTNYNPSLKSRVTISVDTSKNQFSLKLSSVTAADTAVYYCAREGLDAFDIWGQGTMVTVSSTSGQAGQHHHHHHGAYPYDVPDYAS
notes: as for B1
B6: ET200-008 (scFv)
scFv: QSALTQPASVSGSPGQSITISCTGTSSDVGGYNYVSWYQQHPGKAPKLMIYDVSNRPSGVSNRFSGSKSGNTASLTISGLQAEDEADYYCSSYTSSSTSKVFGGGTKLTVLGSRGGGGSGGGGSGGGGSLEMAEVQLVESGGGVVRPGGSLRLSCAASGFTFGDYGMSWVRQAPGKGLEWVSGINWNGGSTGYADSVKGRFTISRDNAKNSLYLQMNSLRAEDTAVYYCARSKYNFHVYYDYWGQGTLVTVSSTSGQAGQHHHHHHGAYPYDVPDYAS
notes: as for B1
B7: ET200-118 (scFv)
scFv: QAVLTQPASVSGSPGQSITISCTGTSSDVGGYNYVSWYQQHPGKAPKLMIYEVSNRPSGVSNRFSGSKSGNTASLTISGLQAEDEADYYCSSYTSSSTPYVFGAGTKVTVLGSRGGGGSGGGGSGGGGSLEMAEVQLVESGGGLVQPGRSLRLSCAASGFTFDDYAMHWVRQAPGKGLEWVSGISWNSGSIGYADSVKGRFTISRDNAKNSLYLQMNSLRAEDTALYYCAKARWTAVASDHHFDYWGQGTLVTVSSTSGQAGQHHHHHHGAYPYDVPDYAS
notes: as for B1
B8: ET200-116 (scFv)
scFv: QPVLTQPPSVSVSPGQTAAIPCSGDKLGDKFASWYQQKPGQSPVLVIYQDTKRPSGIPERFSGSNSGNTATLTISGTQAMDEADYYCQTWASGIVVFGGGTKLTVLGSRGGGGSGGGGSGGGGSLEMAQVQLQQSGPGLVKPSQTLSLTCAISGDSVSSNSAAWNWIRQSPSRGLEWLGRTYYRSKWYNDYAVSVKSRITINPDTSKNQFSLQLNSVTPEDTAVYYCARERSGWKGFDYWGQGTLVTVSSTSGQAGQHHHHHHGAYPYDVPDYAS
notes: as for B1

molecular target: T1, Fc Receptor-like 5 (FcRL5), full length, overexpressed on 3T3 or Raji cells (human, UniProt Q96RD9 16-977); experiment: phage clone screening on cells
T1 construct: also called 3T3-FcRL5
T1 sequence: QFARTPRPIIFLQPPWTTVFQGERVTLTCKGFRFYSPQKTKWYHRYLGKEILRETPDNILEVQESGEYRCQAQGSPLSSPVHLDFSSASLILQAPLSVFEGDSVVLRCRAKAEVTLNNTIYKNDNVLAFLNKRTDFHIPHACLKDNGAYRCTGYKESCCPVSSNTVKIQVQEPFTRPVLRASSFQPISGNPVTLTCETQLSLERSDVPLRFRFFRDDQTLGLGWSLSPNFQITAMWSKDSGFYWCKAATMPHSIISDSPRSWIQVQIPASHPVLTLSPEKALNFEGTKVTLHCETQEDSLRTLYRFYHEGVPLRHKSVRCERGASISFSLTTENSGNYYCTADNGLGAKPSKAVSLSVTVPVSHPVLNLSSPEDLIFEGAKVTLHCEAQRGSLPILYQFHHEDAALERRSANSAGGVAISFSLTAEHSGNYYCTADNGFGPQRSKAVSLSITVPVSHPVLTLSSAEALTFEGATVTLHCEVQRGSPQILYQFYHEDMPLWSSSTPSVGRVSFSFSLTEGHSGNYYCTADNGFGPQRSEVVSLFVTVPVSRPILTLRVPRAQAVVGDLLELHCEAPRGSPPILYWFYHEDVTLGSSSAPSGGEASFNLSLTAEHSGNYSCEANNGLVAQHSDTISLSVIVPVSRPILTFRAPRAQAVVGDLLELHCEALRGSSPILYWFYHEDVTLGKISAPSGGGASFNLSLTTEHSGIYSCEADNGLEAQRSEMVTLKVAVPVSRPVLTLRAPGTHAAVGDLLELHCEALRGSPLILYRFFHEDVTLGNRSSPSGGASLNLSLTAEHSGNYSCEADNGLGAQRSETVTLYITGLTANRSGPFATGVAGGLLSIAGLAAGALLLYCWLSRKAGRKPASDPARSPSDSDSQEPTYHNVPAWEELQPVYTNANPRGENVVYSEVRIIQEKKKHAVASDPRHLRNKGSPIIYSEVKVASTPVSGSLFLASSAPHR
Procedure, shortened: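 scFv phage clones were incubated with live 3T3 cells overexpressing full-length FcRL5, then detected with mouse anti-M13 mAb and PE-anti-mouse Ig by flow cytometry. 3T3 cells expressing FcRL1, 2, 3, 4 or 6 served as negative-control targets.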

| Binder | binding result |
| --- | --- |
| B1 | binds |
| B2 | binds |
| B3 | binds |
| B4 | binds |
| B5 | binds |
| B6 | binds |
| B7 | binds |
| B8 | binds |

molecular target: T2, FcRL4, overexpressed on 3T3 cells (UniProt Q96PJ5 20-515, limits assumed); experiment: phage clone on 3T3-FcRL4 cells
T2 construct: whole, on cells
T2 sequence (looked up): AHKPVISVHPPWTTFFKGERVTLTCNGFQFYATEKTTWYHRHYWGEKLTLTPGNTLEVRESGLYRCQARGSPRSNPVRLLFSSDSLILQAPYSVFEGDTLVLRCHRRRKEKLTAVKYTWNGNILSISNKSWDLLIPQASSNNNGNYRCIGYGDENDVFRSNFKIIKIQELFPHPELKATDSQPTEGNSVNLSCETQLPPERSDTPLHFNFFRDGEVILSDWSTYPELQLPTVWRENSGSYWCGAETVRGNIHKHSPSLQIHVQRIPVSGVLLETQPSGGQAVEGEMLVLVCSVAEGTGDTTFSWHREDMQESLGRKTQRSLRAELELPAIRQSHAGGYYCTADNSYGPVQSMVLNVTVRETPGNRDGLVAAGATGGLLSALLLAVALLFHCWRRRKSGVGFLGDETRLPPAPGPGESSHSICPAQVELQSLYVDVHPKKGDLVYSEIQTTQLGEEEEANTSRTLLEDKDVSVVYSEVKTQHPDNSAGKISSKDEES

| Binder | binding result |
| --- | --- |
| B1 | no binding |
| B2 | no binding |
| B3 | no binding |
| B4 | no binding |
| B5 | no binding |
| B6 | no binding |
| B7 | no binding |
| B8 | no binding |

molecular target: T3, FcRL3, overexpressed on 3T3 cells (UniProt Q96P31 18-734, limits assumed); experiment: phage clone on 3T3-FcRL3 cells
T3 construct: whole, on cells
T3 sequence (looked up): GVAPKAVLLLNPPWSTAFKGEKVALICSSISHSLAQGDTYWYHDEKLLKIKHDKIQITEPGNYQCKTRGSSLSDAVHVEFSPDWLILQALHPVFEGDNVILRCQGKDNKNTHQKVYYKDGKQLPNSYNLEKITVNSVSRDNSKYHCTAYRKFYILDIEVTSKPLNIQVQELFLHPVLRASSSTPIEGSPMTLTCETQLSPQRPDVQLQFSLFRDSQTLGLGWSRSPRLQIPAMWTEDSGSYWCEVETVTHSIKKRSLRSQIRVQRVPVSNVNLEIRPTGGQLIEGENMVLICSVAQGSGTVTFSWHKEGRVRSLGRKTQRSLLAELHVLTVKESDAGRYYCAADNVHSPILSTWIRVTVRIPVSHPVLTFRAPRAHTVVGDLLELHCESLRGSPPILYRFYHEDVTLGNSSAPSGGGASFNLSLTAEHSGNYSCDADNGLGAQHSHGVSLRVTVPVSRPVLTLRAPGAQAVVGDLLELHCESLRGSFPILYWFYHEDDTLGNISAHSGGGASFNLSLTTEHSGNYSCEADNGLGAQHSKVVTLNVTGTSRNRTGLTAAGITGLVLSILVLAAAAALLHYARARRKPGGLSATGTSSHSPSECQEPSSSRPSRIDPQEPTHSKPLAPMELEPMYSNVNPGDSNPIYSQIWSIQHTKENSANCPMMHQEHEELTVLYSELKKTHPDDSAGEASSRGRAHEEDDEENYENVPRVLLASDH

| Binder | binding result |
| --- | --- |
| B1 | no binding |
| B2 | no binding |
| B3 | no binding |
| B4 | no binding |
| B5 | no binding |
| B6 | no binding |
| B7 | no binding |
| B8 | no binding |

molecular target: T4, FcRL2, overexpressed on 3T3 cells (UniProt Q96LA5 20-508, limits assumed); experiment: phage clone on 3T3-FcRL2 cells
T4 construct: whole, on cells
T4 sequence (looked up): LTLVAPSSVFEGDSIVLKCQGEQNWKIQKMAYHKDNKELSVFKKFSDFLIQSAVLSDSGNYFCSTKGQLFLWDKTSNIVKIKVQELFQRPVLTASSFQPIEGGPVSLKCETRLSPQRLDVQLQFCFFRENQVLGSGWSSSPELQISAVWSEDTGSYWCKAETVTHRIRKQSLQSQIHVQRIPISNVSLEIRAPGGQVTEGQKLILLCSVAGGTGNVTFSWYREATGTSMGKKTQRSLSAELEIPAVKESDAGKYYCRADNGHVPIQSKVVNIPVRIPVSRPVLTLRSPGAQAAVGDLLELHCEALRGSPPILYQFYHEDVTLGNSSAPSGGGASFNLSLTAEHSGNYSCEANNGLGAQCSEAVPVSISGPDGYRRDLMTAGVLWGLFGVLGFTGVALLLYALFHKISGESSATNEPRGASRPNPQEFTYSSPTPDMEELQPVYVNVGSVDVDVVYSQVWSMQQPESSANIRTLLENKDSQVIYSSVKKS

| Binder | binding result |
| --- | --- |
| B1 | no binding |
| B2 | no binding |
| B3 | no binding |
| B4 | no binding |
| B5 | no binding |
| B6 | no binding |
| B7 | no binding |
| B8 | no binding |

From patent US20210388081A1 (Memorial Sloan Kettering, published 2021)
